Measured values reported in paper PMC2783309 (Experimental cell research, 2009).

Molecular target: Biotinylated Clostridium difficile toxin A (Clostridium difficile strain VPI 10463, UniProt P16154 1-2710)
Assay: pull-down

Sequence of Biotinylated Clostridium difficile toxin A (P16154 whole entry): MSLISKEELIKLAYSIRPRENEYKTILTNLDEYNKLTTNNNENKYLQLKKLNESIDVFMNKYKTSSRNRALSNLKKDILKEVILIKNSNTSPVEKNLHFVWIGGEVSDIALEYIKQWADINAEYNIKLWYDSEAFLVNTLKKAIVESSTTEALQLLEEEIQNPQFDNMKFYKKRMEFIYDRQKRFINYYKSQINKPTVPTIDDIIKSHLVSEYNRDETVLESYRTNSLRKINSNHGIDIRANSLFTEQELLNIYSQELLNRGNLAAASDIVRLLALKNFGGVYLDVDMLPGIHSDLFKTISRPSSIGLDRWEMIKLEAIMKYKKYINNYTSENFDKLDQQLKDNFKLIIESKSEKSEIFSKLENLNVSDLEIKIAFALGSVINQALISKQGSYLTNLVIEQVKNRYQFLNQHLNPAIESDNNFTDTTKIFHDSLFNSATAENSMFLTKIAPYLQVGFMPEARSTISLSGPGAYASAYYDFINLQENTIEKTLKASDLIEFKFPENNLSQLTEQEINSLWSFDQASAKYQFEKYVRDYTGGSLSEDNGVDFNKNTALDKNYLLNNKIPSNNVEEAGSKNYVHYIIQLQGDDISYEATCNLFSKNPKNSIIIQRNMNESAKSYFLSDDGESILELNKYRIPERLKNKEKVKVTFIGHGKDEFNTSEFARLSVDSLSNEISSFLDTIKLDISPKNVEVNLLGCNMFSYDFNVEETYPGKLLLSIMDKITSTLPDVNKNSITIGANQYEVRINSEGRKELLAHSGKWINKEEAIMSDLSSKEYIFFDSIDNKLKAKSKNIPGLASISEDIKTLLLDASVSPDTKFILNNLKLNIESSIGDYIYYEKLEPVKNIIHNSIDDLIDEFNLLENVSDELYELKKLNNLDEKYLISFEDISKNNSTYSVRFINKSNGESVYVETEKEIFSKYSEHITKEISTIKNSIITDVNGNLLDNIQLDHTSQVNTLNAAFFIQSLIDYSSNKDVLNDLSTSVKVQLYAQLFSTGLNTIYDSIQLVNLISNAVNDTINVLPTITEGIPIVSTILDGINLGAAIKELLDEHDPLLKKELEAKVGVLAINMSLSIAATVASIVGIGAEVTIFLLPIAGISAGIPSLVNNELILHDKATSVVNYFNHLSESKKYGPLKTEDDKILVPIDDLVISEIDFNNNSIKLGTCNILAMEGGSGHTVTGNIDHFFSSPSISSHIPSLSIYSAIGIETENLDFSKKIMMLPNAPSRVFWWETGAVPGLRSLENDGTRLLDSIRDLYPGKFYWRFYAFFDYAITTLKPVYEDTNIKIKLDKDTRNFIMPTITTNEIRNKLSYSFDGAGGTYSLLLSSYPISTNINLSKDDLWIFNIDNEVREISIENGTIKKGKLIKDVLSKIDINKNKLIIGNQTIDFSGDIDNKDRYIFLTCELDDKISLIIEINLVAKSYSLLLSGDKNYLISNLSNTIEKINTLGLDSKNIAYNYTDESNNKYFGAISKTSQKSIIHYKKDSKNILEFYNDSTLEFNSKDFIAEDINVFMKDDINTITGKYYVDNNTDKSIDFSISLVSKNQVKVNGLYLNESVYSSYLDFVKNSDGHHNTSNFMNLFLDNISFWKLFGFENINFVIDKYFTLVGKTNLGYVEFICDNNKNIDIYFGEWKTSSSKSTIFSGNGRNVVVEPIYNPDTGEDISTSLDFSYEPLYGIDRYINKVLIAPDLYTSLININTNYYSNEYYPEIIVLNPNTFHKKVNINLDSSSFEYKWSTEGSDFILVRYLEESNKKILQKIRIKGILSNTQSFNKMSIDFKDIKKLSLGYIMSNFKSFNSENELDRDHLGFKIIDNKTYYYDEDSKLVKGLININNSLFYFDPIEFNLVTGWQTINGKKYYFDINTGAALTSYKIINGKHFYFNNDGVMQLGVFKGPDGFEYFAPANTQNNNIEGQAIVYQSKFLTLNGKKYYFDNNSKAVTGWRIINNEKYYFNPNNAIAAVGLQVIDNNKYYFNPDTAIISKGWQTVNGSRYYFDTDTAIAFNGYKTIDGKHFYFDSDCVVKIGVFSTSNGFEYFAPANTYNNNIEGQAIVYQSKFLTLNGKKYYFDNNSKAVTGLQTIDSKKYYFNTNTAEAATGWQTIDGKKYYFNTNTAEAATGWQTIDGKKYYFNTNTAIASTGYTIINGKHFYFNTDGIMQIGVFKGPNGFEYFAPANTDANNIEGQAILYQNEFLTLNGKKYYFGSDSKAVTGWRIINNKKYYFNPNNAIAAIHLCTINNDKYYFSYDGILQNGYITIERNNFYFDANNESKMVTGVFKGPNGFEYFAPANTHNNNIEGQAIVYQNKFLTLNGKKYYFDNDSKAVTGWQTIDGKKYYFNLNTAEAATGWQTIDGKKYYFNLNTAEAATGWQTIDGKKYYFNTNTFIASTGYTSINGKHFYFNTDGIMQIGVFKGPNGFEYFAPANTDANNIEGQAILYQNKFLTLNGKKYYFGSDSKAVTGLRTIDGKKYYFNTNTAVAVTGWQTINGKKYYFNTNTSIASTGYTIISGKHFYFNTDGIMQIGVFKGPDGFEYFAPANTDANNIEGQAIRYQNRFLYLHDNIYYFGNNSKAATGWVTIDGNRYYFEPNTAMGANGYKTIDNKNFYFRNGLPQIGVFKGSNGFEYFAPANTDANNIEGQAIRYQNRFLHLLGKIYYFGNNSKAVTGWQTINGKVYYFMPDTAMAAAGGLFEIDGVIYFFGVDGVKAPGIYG

B1: GST-Src catalytic domain (domain or fragment, UniProt P12931-1 226-536, looked up)
chain: LQQLVAYYSKHADGLCHRLTTVCPTSKPQTQGLAKDAWEIPRESLRLEVKLGQGCFGEVWMGTWNGTTRVAIKTLKPGTMSPEAFLQEAQVMKKLRHEKLVQLYAVVSEEPIYIVTEYMSKGSLLDFLKGETGKYLRLPQLVDMAAQIASGMAYVERMNYVHRDLRAANILVGENLVCKVADFGLARLIEDNEYTARQGAKFPIKWTAPEAALYGRFTIKSDVWSFGILLTELTTKGRVPYPGMVNREVLDQVERGYRMPCPPECPESLHDLMCQCWRKEPEERPTFEYLQAFLEDYFTSTEPQYQPGENL
**Q.** Does B1 bind?
**A.** binds
